Data taken from patent publication US20220306739A1 (Janssen / Centocor, published 2022).

Experiments:
[1] = target: T1, TRBC2 TCR on HPB-ALL cells (human, UniProt A0A5B9 1-178); test: flow cytometry cell binding to HPB-ALL cells (TRBC2), signal:background ratio
T1 construct: whole, on cells; Only the constant domain is named; also called HPB-ALL cell line that endogenously expresses TRBC2 TCR
T1 TCR beta (looked up): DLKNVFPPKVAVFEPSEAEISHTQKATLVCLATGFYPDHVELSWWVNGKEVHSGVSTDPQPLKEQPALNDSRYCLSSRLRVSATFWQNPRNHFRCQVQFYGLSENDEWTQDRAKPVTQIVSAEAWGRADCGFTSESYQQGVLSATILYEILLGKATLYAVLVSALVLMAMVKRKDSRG

[2] = target: T2, TCR with TRBC1 on Jurkat cells (human, UniProt P01850 1-176); test: flow cytometry on TRBC1 expressing Jurkat cells
T2 construct: whole, on cells; Only the constant domain is named; also called TRBC1 expressing Jurkat cell lines; transfected Jurkat cells
T2 TCR beta (looked up): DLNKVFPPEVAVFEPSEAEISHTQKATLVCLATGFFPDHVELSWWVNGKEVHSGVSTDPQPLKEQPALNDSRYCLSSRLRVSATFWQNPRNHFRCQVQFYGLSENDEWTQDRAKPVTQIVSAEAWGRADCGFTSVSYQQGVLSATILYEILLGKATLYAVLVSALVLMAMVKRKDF
Method: Cells were washed with wash buffer (PBS+2% FBS) and the fluorescence of stained cells was measured on Novocyte flow cytometer. Cells were visualized on forward and sideward scatter and doublets were excluded. No secondary antibody control was used to establish background fluorescence and to gate on specific population. Background value was subtracted from main samples to get specific binding value.

B1: anti-TRBC1 antibody JOVI-1 mIgG2a (TRB1B1) (antibody, V domains shown)
VH: EVRLQQSGPDLIKPGASVKMSCKASGYTFTGYVMHWVKQRPGQGLEWIGFINPYNDDIQSNERFRGKATLTSDKSSTTAYMELSSLTSEDSAVYYCARGAGYNFDGAYRFFDFWGQGTTLTVSS
VL: DVVMTQSPLSLPVSLGDQASISCRSSQRLVHSNGNTYLHWYLQKPGQSPKLLIYRVSNRFPGVPDRFSGSGSGTDFTLKISRVEAEDLGIYFCSQSTHVPYTFGGGTKLEIK
notes: Mouse IgG2a monoclonal, commercially sourced; also called mJOVI-1; mouse anti-human TRBC1 clone JOVI-1 mAb
binding result [1]: no binding | EC50 [2]: 1 to 2 nM
